The results in this text go back to patent US20050009149A1.

Where “and” joins values, the source holds several entries; their conditions need not be identical. Equal values may be shown once.

One assay has as its target zTNF4 (UniProt Q9Y275). The assay is described as follows: cell-based or functional assay.
The target in assay [1] is human TACI on Jurkat TACI KZ142 Luciferase cells (human) (UniProt O14836). The assay is described as follows: cell-based or functional assay.
Chain of UniProt O14836 (O14836 whole entry): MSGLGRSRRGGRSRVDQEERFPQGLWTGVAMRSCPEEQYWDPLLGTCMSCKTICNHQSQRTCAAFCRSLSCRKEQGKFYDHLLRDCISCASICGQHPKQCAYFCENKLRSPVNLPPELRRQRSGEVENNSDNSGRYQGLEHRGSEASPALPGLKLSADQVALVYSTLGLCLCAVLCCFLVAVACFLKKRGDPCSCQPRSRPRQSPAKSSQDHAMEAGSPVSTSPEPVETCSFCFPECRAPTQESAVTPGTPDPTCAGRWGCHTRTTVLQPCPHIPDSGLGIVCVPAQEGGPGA

On to “TACI-Fc fusion protein (from UniProt O14836 1-165)”, for which, in the assay with zTNF4, the EC50, inhibition of zTNF4-stimulated human B-cell proliferation (3H-thymidine incorporation) came to 1.1 nM. In the assay with zTNF4, “TACI-NC1 (fusion of an extracellular domain of TACI and the NC1 domain of human collagen X, with Glu-Glu tag)” gave an EC50, inhibition of zTNF4-stimulated human B-cell proliferation (3H-thymidine incorporation) of 0.057 nM; a fold effectiveness against TACI-Fc5, inhibition of zTNF4-induced B-cell proliferation of 19 times; a fold efficiency at inhibiting zTNF4-stimulated proliferation of human B-cells of 10 fold. Regarding “zTNF4 (from UniProt Q9Y275 134-285) (ligand)”, the luciferase responsiveness of Jurkat TACI KZ142 Luciferase cells in assay [1] is 18 fold and 10 fold.
